Experimental data published in the supplement of paper PMC10567573.

Assay: protein stability index of a GFP-peptide fusion (GPS, HEK-293T) (PSI 1-6); higher = more stable
[1] = parent: NP_009172.2, c terminus: native
[2] = parent: NP_002788.1, c terminus: native
[3] = parent: NP_006221.1, c terminus: native
[4] = parent: NP_015628.1, c terminus: native

## FSEIRETSAKVNWMPPPSRADSFK
parent: IOH81617_33, c terminus: a fixed tail appended
  protein stability index: 3.45

## FICQATGDPRPKIVWNKKGKKVSN
parent: IOH82190_8, c terminus: a fixed tail appended
  protein stability index: 2.13

## NKWTVQYNVSPLSWNVAVKFLMAR
parent: IOH82149_6, c terminus: a fixed tail appended
  protein stability index: 2.09

## VMTLPSDLRKHRRKLLSPVSREEN
parent: IOH82170_31, c terminus: a fixed tail appended
  protein stability index: 3.53

## ILFSLPPALDWDSVHVPGPHAMTI
parent: IOH82149_45, c terminus: a fixed tail appended
  protein stability index: 2.54

## ELDELLKEISRKRRSIRYGREVEL
parent: IOH82190_126, c terminus: a fixed tail appended
  protein stability index: 2.18

## FSPDGPSRFRKAYKPEQPLVRLRG
parent: IOH81790_52, c terminus: a fixed tail appended
  protein stability index: 1.81

## LPALFTDLYSQEITAEEAREALPA [SNF8 addA]
[1]
  protein stability index: 3.42

## VSVNAQTLDGRTPLHLAAQRGHYR
parent: IOH82264_100, c terminus: a fixed tail appended
  protein stability index: 3.37

## DGWIRVSSDNVADLHEKYSGSTP [PSMB5 WT]
[2]
  protein stability index: 2.42

## EIGTSDQIVPEYQEDSDISSFFC
parent: IOH82269_63, c terminus: native
  protein stability index: 2.87

## DCAGSPQKPLCASDGRTFLSRCEF
parent: IOH81799_8, c terminus: a fixed tail appended
  protein stability index: 2.54

## CQPISFSGFGAEDDDLGGLGLGPT [POLD2 addT]
[3]
  protein stability index: 2.6

## DGWIRVSSDNVADLHEKYSGSTPT [PSMB5 addT]
[2]
  protein stability index: 3.53

## IDFLRVVRNQQSLAVSNMGARSKG
parent: IOH82149_81, c terminus: a fixed tail appended
  protein stability index: 2.4

## VIDLFDEQGLSALHLAAQGRHAQT
parent: IOH82264_122, c terminus: a fixed tail appended
  protein stability index: 2.72

## LLQRELMVPGTRHSAVLRDLRSGT
parent: IOH81617_23, c terminus: a fixed tail appended
  protein stability index: 2.54

## SFRKFRYGYNNVVTIPAGATHILV
parent: IOH81847_116, c terminus: a fixed tail appended
  protein stability index: 2.6

## PGVHRRYSALREESAKDWETSPLP
parent: IOH82170_4, c terminus: a fixed tail appended
  protein stability index: 4.19

## FSLKTFKRKSEVERAVKRMRHLST
parent: IOH81883_19, c terminus: a fixed tail appended
  protein stability index: 2.06

## MVHVARLLLLLLTFFLRTDAETPP
parent: IOH82190_1, c terminus: a fixed tail appended
  protein stability index: 2.92

## LKGAFPARLKKVLIVGAPIWFRVP
parent: IOH82149_30, c terminus: a fixed tail appended
  protein stability index: 2.96

## FTETNNHWPQGPTGPPGPPGPMGP [EMID1 WT]
parent: IOH81855_48, c terminus: a fixed tail appended
  protein stability index: 2.31

## TDDSYSCHCLKGFTLNPDKKTCRR
parent: IOH81883_64, c terminus: a fixed tail appended
  protein stability index: 2.25

## AFKAAALIQRWYRRYVARLEMRRR
parent: IOH82202_4, c terminus: a fixed tail appended
  protein stability index: 3.14

## RLLRFSSQIHNNGQSDFRPKNGRH
parent: IOH81790_100, c terminus: a fixed tail appended
  protein stability index: 2.72

## LPALFTDLYSQEITAEEAREALP [SNF8 WT]
[1]
  protein stability index: 2.74

## DHSGFISLDEFRQTWKLFSSHMNI
parent: IOH82202_112, c terminus: a fixed tail appended
  protein stability index: 1.7

## QKPLCASDGRTFLSRCEFQRAKCK
parent: IOH81799_9, c terminus: a fixed tail appended
  protein stability index: 2.71

## HVDPEEPWSPCSARFITDFLDNGY
parent: IOH81847_67, c terminus: a fixed tail appended
  protein stability index: 1.84

## ITWFKDFLPVDTSNNNGRIKQLRS
parent: IOH82190_27, c terminus: a fixed tail appended
  protein stability index: 1.83

## LTKLREMGREKCHQYWPAERSARY
parent: IOH82190_223, c terminus: a fixed tail appended
  protein stability index: 2.36

## TQHLPRECLPENLGGYVKIDLATW
parent: IOH82149_38, c terminus: a fixed tail appended
  protein stability index: 1.88

## EQRNSRWNTVLRAVKAKTHHLEPA [TRPA1 addA]
[4]
  protein stability index: 4.26

## SYVRSRKRLREEEAARLFKQIVSA
parent: IOH82269_29, c terminus: a fixed tail appended
  protein stability index: 2.13

## DGWIRVSSDNVADLHEKYSGSTPA [PSMB5 addA]
[2]
  protein stability index: 2.51

## LPALFTDLYSQEITAEEAREALPT [SNF8 addT]
[1]
  protein stability index: 3.79

## PALETQPQGDEEDIASRYPTLWTE
parent: IOH81799_32, c terminus: a fixed tail appended
  protein stability index: 4.26

## PVVSMDLDPQPITDEEEGLIWVVG
parent: IOH82190_140, c terminus: a fixed tail appended
  protein stability index: 3.88

## HISSCKLGPQVSLDPMKNVTCENG
parent: IOH81790_46, c terminus: a fixed tail appended
  protein stability index: 3.95

## TLDGYGIHPKSIDLDNYFTARRLL [NFE2L1 WT]
parent: IOH81649_11, c terminus: a fixed tail appended
  protein stability index: 1.93

## EQRNSRWNTVLRAVKAKTHHLEP [TRPA1 WT]
[4]
  protein stability index: 3.03

## AVKKFVESEDDPVVKKIALREIRM [CDKL4 WT]
parent: IOH82195_6, c terminus: a fixed tail appended
  protein stability index: 2.87

## YVEVKEGKTWKQICDKHWTAKNSR
parent: IOH81790_35, c terminus: a fixed tail appended
  protein stability index: 2.24

## FIVDILQFLDIGPDVTRVGLLQYG
parent: IOH81883_14, c terminus: a fixed tail appended
  protein stability index: 2.92

## CQPISFSGFGAEDDDLGGLGLGP [POLD2 WT]
[3]
  protein stability index: 2.27

## FIPSSHNDRDFLTRIFTEDRFAQD
parent: IOH82202_13, c terminus: a fixed tail appended
  protein stability index: 2.05

## CQPISFSGFGAEDDDLGGLGLGPA [POLD2 addA]
[3]
  protein stability index: 2.54

## YAGNLHESGVHGALLALDENFDHN
parent: IOH82170_95, c terminus: a fixed tail appended
  protein stability index: 2.51

## AAWQGHLPIVKLLAKQPGVSVNAQ
parent: IOH82264_97, c terminus: a fixed tail appended
  protein stability index: 2.35

## GSLPWQGLKADTLKERYQKIGDTK [CSNK1G1 WT]
parent: IOH82133_42, c terminus: a fixed tail appended
  protein stability index: 4.1

## VNVPGSFVCQCYSGYALAEDGKRC
parent: IOH81883_50, c terminus: a fixed tail appended
  protein stability index: 1.99

## RERMELLEEAKKMEMAKFRYILPV
parent: IOH82264_11, c terminus: a fixed tail appended
  protein stability index: 2.38
